# Source: PMC5906480, “Tau Antibody Structure Reveals a Molecular Switch Defining a Pathological Conformation of the Tau Protein” (Scientific Reports, 2018)
# “Also recorded” adds a separate entry of the source.
# B1: C5.2: novel mouse monoclonal antibody that targets the pS396 tau epitope region (antibody, V domains shown)
# VH: QVQLQQSDAELVKPGASVKISCKASGYTFTDRTIHWVKQRPEQGLEWIGYIYPGDDSTKYNDMFKAKATLTADKSSNTAYMQLNSLTSDDSAVYFCARRGTMDYWGQGTSVTVSS
# VL: DVQMIQSPSSLSASLGDIVTMTCQASQDTSINLNWFQQKPGKAPKLLIYGASNLEDGVPSRFSGSRYGTDFTLTISSLEDEDMATYFCLQHTYLPFTFGSGTKLEIK
# Experiments:
# [1] = test system: pS396 peptide; assay: ELISA, pS396 peptide; type: binding
# Procedure: (§1) Immulon 4 HBX (extra high-binding) 96-well microtiter plates (Thermo Scientific) were coated with the same peptide used for crystallization diluted to 2 μg/mL in phosphate-buffered saline (PBS) and left overnight at 4 °C (Table 1). Plates were then washed three times in PBS-T (PBS containing 0.05% Tween-20) and blocked in 5% non-fat milk and 3% bovine serum albumin in PBS for 2 hours at room temperature. Plates were subsequently washed 3 times in PBS-T before C5.2 was serially diluted (8 μg/mL–0.05 ng/mL) in PBS and incubated for 1 hour at room temperature. Then, alkaline phosphatase-conjugated goat anti-mouse IgG (Southern Biotech) was diluted 1:2000 in PBS and incubated for 30 minutes at room temperature. Finally, bound IgG was analyzed by addition of p-nitrophenyl phosphate substrate (Thermo Scientific) and measurement at 405 nm on a VersaMax Microplate Reader.
# (§2) In order to evaluate the ability of C5.2 to exclusively target the phosphorylated epitope, we performed an enzyme-linked immunosorbent assay (ELISA). The peptides used in the assay are the same peptides used for crystallization and diluted to a concentration of 2 μg/mL (Table 1). Binding curves were generated from ELISA data by maintaining plate-bound peptide concentrations and serially diluting C5.2 IgG (Fig. 1c).
# [2] = test system: non-phosphorylated peptide; assay: ELISA, non-phosphorylated peptide; type: binding; settings: plate coated with peptide 2 μg/mL; C5.2 IgG 8 μg/mL–0.05 ng/mL, 1 h room temperature; 405 nm
# Procedure: as §1, §2
# [3] = test system: normal tau in the soluble tau fraction (S1) from healthy control subjects; assay: Western and dot blot, healthy control brain; type: binding, human; settings: C5.2 1 µg/mL overnight 4 °C, pool of 4 healthy control donors
# Procedure: Mice were euthanized by cervical dislocation. Brains were quickly removed, weighed and divided sagittally down the midline to yield two hemispheres. One hemisphere was parted from the cerebellum and hindbrain, the forebrain containing cerebral cortex and hippocampus was snap-frozen on dry ice and stored at −80 °C until use for biochemical analysis. Frontal cortices from 4 AD donors (2 males and 2 females) and 4 non-demented healthy controls (HC, 2 males and 2 females) were obtained from Cambridge Bioscience (Cambridge, UK). The brain tissue samples were fresh-frozen and stored at −80 °C until used for biochemical analysis. All donors were of Caucasian race. Age of AD donors: 76–91 years. Age of the HC donors: 57–80 years. […]
# Samples were boiled in 1 × LDS loading buffer and 100 mM DTT. […] Tau and pTau levels were assessed in the samples using 1 μg/mL C5.2 overnight at 4 °C. A secondary fluorophore conjugated IgG antibody was used (IRDye 680 Goat anti-mouse, LICOR biosciences) and the signal was quantified using Odyssey CLx and Image studio software (LI-COR biosciences).
# 1 μl sample of S1 and P3 isolated from 24 weeks old rTg4510 and non-transgenic littermate (non-tg) mice or from four pooled Alzheimer’s disease (AD) and healthy control (HC) brains was spotted on nitrocellulose membranes. […] Bound antibodies were detected using an enhanced chemiluminescence system (ECL PLUS kit; Perkin Elmer).
# [4] = test system: pS396/pS404 peptide; assay: ELISA, pS396/pS404 peptide; type: binding; settings: plate coated with peptide 2 μg/mL; C5.2 IgG 8 μg/mL–0.05 ng/mL, 1 h room temperature; 405 nm
# Procedure: as §1, §2
# [5] = test system: tau pathology in Alzheimer's disease brain sections (prefrontal cortex); assay: Immunohistochemistry, Alzheimer's disease brain sections; type: binding, human; settings: C5.2 at 0.1 to 1 μg/mL, overnight 4 °C, paraffin sections
# Procedure: (§3) Paraffin sections of 4 μm thickness were prepared from blocks of PFA-fixed prefrontal cortex from AD donors and non-demented controls obtained from Tissue Solutions (Glasgow, UK). The sections were deparaffinised, rehydrated and subjected to antigen retrieval by boiling in 10 mM citrate buffer pH 6 for 5 min. Endogenous peroxidase was quenched for 10 min with 1% H2O2 in PBS. Sections were then incubated 20 min in blocking buffer followed by overnight incubation in a humidified chamber at 4 °C with primary antibody at 0.1 to 1 μg/mL in incubation buffer. Between each incubation step, the sections were washed 3 × 10 min in wash buffer. Subsequently, the sections were incubated at room temperature in the following solutions; 60 min with a biotinylated secondary Ab diluted 1:200 in wash buffer; 60 min in ABC; 20 min in DAB. Finally, the sections were counterstained with hematoxylin and coverslipped.
# [6] = test system: normal tau in brain sections from healthy control subjects (prefrontal cortex); assay: Immunohistochemistry, healthy control brain sections; type: binding, human; settings: C5.2 at 0.1 to 1 μg/mL, overnight 4 °C, paraffin sections
# Procedure: as §3
molecule,measurement,setting,value
B1,Phospho-specificity,"[1]; ELISA, vs pS404 and non-phosphorylated peptides",pS396 phosphorylation state-specific mAb
same,Association with peptide (ELISA),"[1]; plate coated with peptide 2 μg/mL, C5.2 IgG 8 μg/mL–0.05 ng/mL, 1 h room temperature, 405 nm",strong association
same,Recognition of peptide (ELISA),[2],lack of recognition; also recorded: does not bind
same,Detection of normal tau (S1),[3],not detected
same,Association with peptide (ELISA),[4],strong association
same,Binding in AD brain sections,[5],"binds strongly to tangles, pre-tangles and dystrophic neurites"
same,Binding to normal tau in brain sections,[6],does not bind to normal tau
